# Experimental data from patent publication US9994628B2, “Peptides and combination of peptides for use in immunotherapy against various tumors” (IMMATICS BIOTECHNOLOGIES GMBH, priority 2015, dated 2018).
# Molecular target: HLA-A*02:01 (Homo sapiens, UniProt P04439, D140Y/D185E/D98H/E176V/E277Q/G131W/G231S/I119V/I121R/I166T/I218V/L300P/L318F/N151K/N90K/P208A/P217A/Q86G/Q94H/R138H/R169H/T345S)
# Assay: MHC binding assay: UV-ligand exchange and β2m ELISA (peptide exchange yield, Table 7)
# Details: binding of HLA-class I restricted peptides to HLA-A*02:01, UV-ligand exchange
# How it was run: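 Peptide-MHC complexes made by UV-mediated exchange of a cleavable ligand for test peptide; exchange yield measured by ELISA detecting β2m of stabilized complexes captured on streptavidin, using refolded HLA-A*02:01/MLA-001 monomer standards (15-500 ng/ml). Samples diluted 100-fold; HRP anti-β2m, TMB, absorbance 450 nm.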
row,"Peptide exchange (MHC class I binding score, peptide exchange yield)",Substance
1,+++ (≥50% = +++),236 (KMSELQTYV; listed as Homo sapiens) [compound 236]
2,+++ (≥50% = +++),237 (ALLEQTGDMSL; listed as Homo sapiens) [compound 237]
3,++ (≥20% = ++),238 (HLQEKLQSL; listed as Homo sapiens) [compound 238]
4,+++ (≥50% = +++),239 (VIIKGLEEITV; listed as Homo sapiens) [compound 239]
5,+++ (≥50% = +++),241 (KQFEGTVEI; listed as Homo sapiens) [compound 241]
6,+++ (≥50% = +++),242 (KLQEEIPVL; listed as Homo sapiens) [compound 242]
7,++ (≥20% = ++),243 (GLAEFQENV; listed as Homo sapiens) [compound 243]
8,+++ (≥50% = +++),244 (NVAEIVIHI; listed as Homo sapiens) [compound 244]
9,++ (≥20% = ++),245 (ALLEEEEGV; listed as Homo sapiens) [compound 245]
10,+++ (≥50% = +++),246 (ALAGIVTNV; listed as Homo sapiens) [compound 246]
11,++ (≥20% = ++),247 (NLLIDDKGTIKL; listed as Homo sapiens) [compound 247]
12,+++ (≥50% = +++),248 (VLMQDSRLYL; listed as Homo sapiens) [compound 248]
13,+++ (≥50% = +++),249 (YLYQILQGI; listed as Homo sapiens) [compound 249]
14,+++ (≥50% = +++),250 (LMQDSRLYL; listed as Homo sapiens) [compound 250]
15,+++ (≥50% = +++),251 (LLWGNLPEI; listed as Homo sapiens) [compound 251]
16,++ (≥20% = ++),252 (SLMEKNQSL; listed as Homo sapiens) [compound 252]
17,+++ (≥50% = +++),253 (KLLAVIHEL; listed as Homo sapiens) [compound 253]
18,++ (≥20% = ++),254 (ALGDKFLLRV; listed as Homo sapiens) [compound 254]
19,+++ (≥50% = +++),255 (FLMKNSDLYGA; listed as Homo sapiens) [compound 255]
20,+++ (≥50% = +++),256 (FLNDIFERI; listed as Homo sapiens) [compound 256]
21,+++ (≥50% = +++),257 (KLIDHQGLYL; listed as Homo sapiens) [compound 257]
22,++ (≥20% = ++),258 (QLVQRVASV; listed as Homo sapiens) [compound 258]
23,+ (≥10% = +),259 (GPGIFPPPPPQP; listed as Homo sapiens) [compound 259]
24,+++ (≥50% = +++),260 (ALNESLVEC; listed as Homo sapiens) [compound 260]
25,+++ (≥50% = +++),261 (GLAALAVHL; listed as Homo sapiens) [compound 261]
26,+++ (≥50% = +++),262 (LLLEAVWHL; listed as Homo sapiens) [compound 262]
27,+++ (≥50% = +++),263 (SIIEYLPTL; listed as Homo sapiens) [compound 263]
28,++ (≥20% = ++),264 (TLHDQVHLL; listed as Homo sapiens) [compound 264]
29,+++ (≥50% = +++),265 (FLLDKPQDLSI; listed as Homo sapiens) [compound 265]
30,++ (≥20% = ++),266 (FLLDKPQDL; listed as Homo sapiens) [compound 266]

# More lines, now with the values behind:
row,Substance,"Peptide exchange (MHC class I binding score, peptide exchange yield)"
1,214 (ALFETLIQL; listed as Homo sapiens) [compound 214],+++ (≥50% = +++)
2,215 (QIADIVTSV; listed as Homo sapiens) [compound 215],++ (≥20% = ++)
3,216 (ALSTVTPRI; listed as Homo sapiens) [compound 216],++ (≥20% = ++)
4,217 (LLWPSSVPA; listed as Homo sapiens) [compound 217],+++ (≥50% = +++)
5,218 (SLTGANITV; listed as Homo sapiens) [compound 218],+++ (≥50% = +++)
6,219 (GVVPTIQKV; listed as Homo sapiens) [compound 219],++ (≥20% = ++)
7,220 (ALSELERVL; listed as Homo sapiens) [compound 220],+++ (≥50% = +++)
8,221 (IMLNSVEEI; listed as Homo sapiens) [compound 221],++ (≥20% = ++)
9,222 (LLTGVFAQL; listed as Homo sapiens) [compound 222],++ (≥20% = ++)
10,223 (ALHPVQFYL; listed as Homo sapiens) [compound 223],+++ (≥50% = +++)
11,224 (LLFDWSGTGRADA; listed as Homo sapiens) [compound 224],+++ (≥50% = +++)
12,225 (FLPQPVPLSV; listed as Homo sapiens) [compound 225],+++ (≥50% = +++)
13,226 (SLAGNLQEL; listed as Homo sapiens) [compound 226],+++ (≥50% = +++)
14,227 (SEMEELPSV; listed as Homo sapiens) [compound 227],+ (≥10% = +)
15,228 (SLLELDGINLRL; listed as Homo sapiens) [compound 228],+++ (≥50% = +++)
16,229 (YLYELEHAL; listed as Homo sapiens) [compound 229],++ (≥20% = ++)
17,230 (KLLNMIFSI; listed as Homo sapiens) [compound 230],+++ (≥50% = +++)
18,231 (LLDDIFIRL; listed as Homo sapiens) [compound 231],+++ (≥50% = +++)
19,233 (SLFESLEYL; listed as Homo sapiens) [compound 233],+++ (≥50% = +++)
20,234 (VLLNEILEQV; listed as Homo sapiens) [compound 234],++++ (≥75% = ++++)
21,235 (SLLNQPKAV; listed as Homo sapiens) [compound 235],++ (≥20% = ++)
